# Experimental data published in US20200024330A1.
# Legend:
# Assay in all cases: cell-based or functional assay
# [1] = target: HIV-1 Env of isolate MGRM-AE-007 (HIV-1)
# [2] = target: HIV-1 Env of isolate MGRM-AE-008 (HIV-1)
# [3] = target: HIV-1 Env of isolate MGRM-AG-001 (HIV-1)
# [4] = target: HIV-1 Env of isolate MGRM-AG-002 (HIV-1)
# [5] = target: HIV-1 Env of isolate MGRM-AG-003 (HIV-1)
# [6] = target: HIV-1 Env of isolate MGRM-AG-005 (HIV-1)
# [7] = target: HIV-1 Env of isolate MGRM-AG-006 (HIV-1)
# [8] = target: HIV-1 Env of isolate MGRM-AG-008 (HIV-1)
# [9] = target: HIV-1 Env of isolate MGRM-AG-009 (HIV-1)
# [10] = target: HIV-1 Env of isolate MGRM-AG-011 (HIV-1)
# [11] = target: HIV-1 Env of isolate MGRM-AG-012 (HIV-1)
# [12] = target: HIV-1 Env of isolate MGRM-AG-013 (HIV-1)
# [13] = target: HIV-1 Env of isolate MGRM-G-025 (subtype G) (HIV-1)
# [14] = target: aMLV envelope (negative control pseudovirus)
# [15] = target: HIV-1 92RW020 envelope glycoprotein (Env) on pseudovirus (HIV-1)
# [16] = target: HIV-1 92TH021 envelope glycoprotein (Env) on pseudovirus (HIV-1)
# [17] = target: HIV-1 92UG024 envelope glycoprotein (Env) on pseudovirus (HIV-1)
# [18] = target: HIV-1 Env of isolate MGRM-AE-004 (HIV-1)
# [19] = target: HIV-1 Env of isolate MGRM-AE-005 (HIV-1)
# [20] = target: HIV-1 Env of isolate MGRM-AE-006 (HIV-1)
# [21] = target: HIV-1 Env of isolate MGRM-Chronic-B-010 (HIV-1)
# [22] = target: HIV-1 Env of isolate MGRM-Chronic-B-012 (HIV-1)
# [23] = target: HIV-1 Env of isolate MGRM-Chronic-B-017 (HIV-1)
# [24] = target: HIV-1 Env of isolate MGRM-Chronic-B-018 (HIV-1)
# [25] = target: HIV-1 Env of isolate MGRM-Chronic-B-023 (HIV-1)
# [26] = target: HIV-1 Env of isolate MGRM-Chronic-B-024 (HIV-1)
# [27] = target: HIV-1 Env of isolate MGRM-G-001 (HIV-1)
# [28] = target: HIV-1 Env of isolate MGRM-G-006 (HIV-1)
# [29] = target: HIV-1 Env of isolate MGRM-G-009 (HIV-1)
# [30] = target: HIV-1 Env of isolate MGRM-G-024 (clade G pseudovirus) (HIV-1)
# [31] = target: HIV-1 NL43 envelope glycoprotein (Env) on pseudovirus (HIV-1)
# [32] = target: HIV-1 Env of isolate MG RM-D-028 (subtype D) (HIV-1)
# [33] = target: HIV-1 Env of isolate MGRM-F1-010 (subtype F) (HIV-1)
# [34] = target: HIV-1 Env of isolate MGRM-G-004 (HIV-1)
# [35] = target: HIV-1 Env of isolate MGRM-G-011 (HIV-1)
# [36] = target: HIV-1 Env of isolate MGRM-G-013 (HIV-1)
# [37] = target: HIV-1 Env of isolate MGRM-G-014 (HIV-1)
# [38] = target: HIV-1 Env of isolate MGRM-G-015 (HIV-1)
# [39] = target: HIV-1 Env of isolate MGRM-G-016 (HIV-1)
# [40] = target: HIV-1 Env of isolate MGRM-G-017 (HIV-1)
# [41] = target: HIV-1 Env of isolate MGRM-G-019 (HIV-1)
# [42] = target: HIV-1 Env of isolate MGRM-G-027 (HIV-1)
substance,measurement,setting,value
PGT-144 (4970_K22) (antibody),IC50,[1],> 50 µg/mL
same,IC50,[2],3.55 µg/mL
same,IC50,[3],> 50 µg/mL
same,IC50,[4],7.78 µg/mL
same,IC50,[5],> 50 µg/mL
same,IC50,[6],> 50 µg/mL
same,IC50,[7],> 50 µg/mL
same,IC50,[8],> 50 µg/mL
same,IC50,[9],> 50 µg/mL
same,IC50,[10],44.6 µg/mL
same,IC50,[11],> 50 µg/mL
same,IC50,[12],> 40 µg/mL
same,neutralization IC50,[13],> 50 µg/mL
same,neutralization IC50,[14],> 50 µg/mL
1496_C09 (PG9) (TCN-109) (antibody),"IC50 (ug/ml), neutralizing activity",[15],0.161 µg/mL
same,IC50 neutralization,[15],0.161 µg/mL
same,"IC80, neutralization",[15],1.04 µg/mL
same,IC90 (pseudovirus neutralization),[15],6.55 µg/mL
same,"IC90, neutralization",[15],3.4 µg/mL
same,"IC50 (ug/ml), neutralizing activity",[16],0.103 µg/mL
same,IC50 neutralization,[16],0.103 µg/mL
same,"IC80, neutralization",[16],0.448 µg/mL
same,IC90 (pseudovirus neutralization),[16],1.99 µg/mL
same,"IC90, neutralization",[16],1.07 µg/mL
same,"IC95, neutralization",[16],2.43 µg/mL
same,"IC50 (ug/ml), neutralizing activity",[17],1.91 µg/mL
same,IC50 neutralization,[17],1.91 µg/mL
same,"IC50 (µg/mL), pseudovirus neutralization",[18],0.009 µg/mL
same,"IC50 (µg/ml), pseudovirus neutralization",[18],0.01 µg/mL
same,"IC50 (µg/mL), pseudovirus neutralization",[19],0.282 µg/mL
same,"IC50 (µg/ml), pseudovirus neutralization",[19],0.16 µg/mL
same,"IC50 (µg/mL), pseudovirus neutralization",[20],0.063 µg/mL
same,"IC50 (µg/ml), pseudovirus neutralization",[20],0.05 µg/mL
same,"IC50 (µg/mL), pseudovirus neutralization",[1],0.18 µg/mL
same,"IC50 (µg/mL), pseudovirus neutralization",[2],31.5 µg/mL
same,"IC50 (µg/ml), pseudovirus neutralization",[2],10.6 µg/mL
same,"IC50 (µg/mL), pseudovirus neutralization",[3],17.1 µg/mL
same,"IC50 (µg/ml), pseudovirus neutralization",[3],8.83 µg/mL
same,"IC50 (µg/mL), pseudovirus neutralization",[4],0.076 µg/mL
same,"IC50 (µg/ml), pseudovirus neutralization",[4],0.04 µg/mL
same,"IC50 (µg/ml), pseudovirus neutralization",[5],9.71 µg/mL
same,"IC50 (µg/ml), pseudovirus neutralization",[6],29.7 µg/mL
same,"IC50 (µg/mL), pseudovirus neutralization",[10],0.007 µg/mL
same,"IC50 (µg/ml), pseudovirus neutralization",[10],0.01 µg/mL
same,"IC50 (µg/mL), pseudovirus neutralization",[11],22.8 µg/mL
same,"IC50 (µg/ml), pseudovirus neutralization",[11],1.37 µg/mL
same,"IC50 (µg/mL), pseudovirus neutralization",[12],0.259 µg/mL
same,"IC50 (µg/ml), pseudovirus neutralization",[12],0.23 µg/mL
same,"IC50 (µg/ml), pseudovirus neutralization",[21],0.004 µg/mL
same,"IC50 (µg/ml), pseudovirus neutralization",[22],0.91 µg/mL
same,"IC50 (µg/ml), pseudovirus neutralization",[23],0.32 µg/mL
same,"IC50 (µg/ml), pseudovirus neutralization",[24],0.16 µg/mL
same,"IC50 (µg/ml), pseudovirus neutralization",[25],0.04 µg/mL
same,"IC50 (µg/ml), pseudovirus neutralization",[26],0.18 µg/mL
same,"IC50 (µg/ml), pseudovirus neutralization",[27],0.16 µg/mL
same,"IC50 (µg/ml), pseudovirus neutralization",[28],0.51 µg/mL
same,"IC50 (µg/ml), pseudovirus neutralization",[29],4.9 µg/mL
same,"IC50 (µg/ml), pseudovirus neutralization",[30],0.07 µg/mL
same,"IC50 (ug/ml), neutralizing activity",[31],0.687 µg/mL
same,IC50 neutralization,[31],0.687 µg/mL
4838_L06 (PGT-121) (antibody),"IC50 (ug/ml), neutralizing activity",[16],> 10 µg/mL
same,"IC50 (ug/ml), neutralizing activity",[17],> 10 µg/mL
same,"IC50 (µg/mL), pseudovirus neutralization",[32],0.009 µg/mL
same,neutralization IC50,[18],> 50 µg/mL
same,neutralization IC50,[19],> 50 µg/mL
same,neutralization IC50,[20],> 50 µg/mL
same,neutralization IC50,[1],> 50 µg/mL
same,neutralization IC50,[2],> 50 µg/mL
same,"IC50 (µg/mL), pseudovirus neutralization",[33],0.016 µg/mL
same,"IC50, pseudovirus neutralization",[27],0.004 µg/mL
same,"IC50, pseudovirus neutralization",[34],0.115 µg/mL
same,"IC50, pseudovirus neutralization",[28],> 50 µg/mL
same,"IC50, pseudovirus neutralization",[29],0.02 µg/mL
same,"IC50, pseudovirus neutralization",[35],3.17 µg/mL
same,"IC50, pseudovirus neutralization",[36],3.99 µg/mL
same,"IC50, pseudovirus neutralization",[37],0.009 µg/mL
same,"IC50, pseudovirus neutralization",[38],> 50 µg/mL
same,"IC50, pseudovirus neutralization",[39],> 50 µg/mL
same,"IC50, pseudovirus neutralization",[40],0.004 µg/mL
same,"IC50, pseudovirus neutralization",[41],0.011 µg/mL
same,"IC50, pseudovirus neutralization",[42],0.124 µg/mL
same,"IC50 (ug/ml), neutralizing activity",[31],> 10 µg/mL
same,"IC50, pseudovirus neutralization",[14],> 50 µg/mL
PGT-142 (4995_E20) (antibody),IC50,[1],6.7 µg/mL
same,IC50,[2],0.08 µg/mL
same,IC50,[3],12.4 µg/mL
same,IC50,[4],0.044 µg/mL
same,IC50,[5],> 50 µg/mL
same,IC50,[6],0.383 µg/mL
same,IC50,[7],> 50 µg/mL
same,IC50,[8],12.1 µg/mL
same,IC50,[9],> 50 µg/mL
same,IC50,[10],0.081 µg/mL
same,IC50,[11],> 50 µg/mL
same,IC50,[12],21.7 µg/mL
same,neutralization IC50,[13],> 50 µg/mL
same,neutralization IC50,[14],> 50 µg/mL
PGT-141 (4964_G22; 4993_K13) (antibody),IC50,[1],33.1 µg/mL
same,IC50,[2],0.101 µg/mL
same,IC50,[3],18 µg/mL
same,IC50,[4],0.049 µg/mL
same,IC50,[5],> 50 µg/mL
same,IC50,[6],0.497 µg/mL
same,IC50,[7],> 50 µg/mL
same,IC50,[8],19.2 µg/mL
same,IC50,[9],> 50 µg/mL
same,IC50,[10],0.118 µg/mL
same,IC50,[11],> 50 µg/mL
same,IC50,[12],> 50 µg/mL
same,neutralization IC50,[13],> 50 µg/mL
same,neutralization IC50,[14],> 50 µg/mL
